This data set can be described thus: Release of biologic from nanoparticles in release buffer (fluorescence of soluble biologic after 100 kDa ultrafiltration). Type of data set: physicochemical. The note with it: nanoparticles made by Process 2.

One substance from patent US12186436B2, “Triblock copolymer stabilizers for the formation of nanoparticles encapsulating soluble biologics, therapeutics, and imaging agents” (The Trustees of Princeton University, priority 2018, dated 2025) can be followed below.

Protocol: Release can be studied by diluting the final concentrated nanoparticle solution after ultrafiltration into the desired release buffer. The solutions can then be incubated under the required conditions of temperature and agitation. A suitable method to separate nanoparticles from released biologic can be employed at periodic time points to evaluate the released fraction. In one embodiment, ultrafiltration with a 100 kDa molecular weight cut-off is used to separate released biologic from the nanoparticles containing biologic that is still encapsulated.
Residual acetone and unencapsulated biologic were removed by rinsing on a 100 kDa Amicon ultrafilter that had been pre-blocked to prevent non-specific adsorption. The nanoparticle solution was concentrated to around 15-20 mg/ml and rinsed with deionized water twice using a volume that was about 3-4 times the concentrated volume. The flow-through streams were analyzed by fluorescence to determine encapsulation efficiency. The nanoparticles were resuspended in the indicated release buffer and placed on a shaker table at 37° C. for release. […] Particle size was characterized by Dynamic Light Scattering (DLS) using a Zetasizer Nano ZS.
Temperature was controlled in the centrifugation process to either 5° C. or 20° C. […] The flow-through streams were analyzed by fluorescence to determine encapsulation efficiency. […]

As for lysozyme, the “time for lysozyme release to reach 90%” value is 20 to 30 h.
